Measurements published in paper PMC9302186, “Defining variant-resistant epitopes targeted by SARS-CoV-2 antibodies: A global consortium study” (Science (New York, N.y.), 2021).

Target: T1, SARS-CoV-2 spike receptor binding domain, monomeric (SARS-CoV-2, UniProt P0DTC2)
T1 construct: also called RBD; monomeric RBD
Assay: SPR
Conditions: both partners purified

B1: CoVIC-259 (antibody, V domains shown)
VH: EVQLVESGGGVVQPGRSLRLSCAASGFTFSSYAMHWVRQAPGKGLEWVAVLSYDGSNKYNADSVKGRFTISRDNSKNTLYLQMNSLRVEDTAMYYCARDGVSVTMVRGVIGPLCDYWGQGTLVTVSS
VL: not shown
notes: also called RBD-1 community representative
**Q.** Does B1 bind?
**A.** binds
